# Test results: IntAct's records for PubMed 37582800
# B1: HTH-type transcriptional regulator MalT (Escherichia coli (strain K12)), P06993 (parent)
# chain: MLIPSKLSRPVRLDHTVVRERLLAKLSGANNFRLALITSPAGYGKTTLISQWAAGKNDIGWYSLDEGDNQQERFASYLIAAVQQATNGHCAICETMAQKRQYASLTSLFAQLFIELAEWHSPLYLVIDDYHLITNPVIHESMRFFIRHQPENLTLVVLSRNLPQLGIANLRVRDQLLEIGSQQLAFTHQEAKQFFDCRLSSPIEAAESSRICDDVSGWATALQLIALSARQNTHSAHKSARRLAGINASHLSDYLVDEVLDNVDLATRHFLLKSAILRSMNDALITRVTGEENGQMRLEEIERQGLFLQRMDDTGEWFCYHPLFGNFLRQRCQWELAAELPEIHRAAAESWMAQGFPSEAIHHALAAGDALMLRDILLNHAWSLFNHSELSLLEESLKALPWDSLLENPQLVLLQAWLMQSQHRYGEVNTLLARAEHEIKDIREDTMHAEFNALRAQVAINDGNPDEAERLAKLALEELPPGWFYSRIVATSVLGEVLHCKGELTRSLALMQQTEQMARQHDVWHYALWSLIQQSEILFAQGFLQTAWETQEKAFQLINEQHLEQLPMHEFLVRIRAQLLWAWARLDEAEASARSGIEVLSSYQPQQQLQCLAMLIQCSLARGDLDNARSQLNRLENLLGNGKYHSDWISNANKVRVIYWQMTGDKAAAANWLRHTAKPEFANNHFLQGQWRNIARAQILLGEFEPAEIVLEELNENARSLRLMSDLNRNLLLLNQLYWQAGRKSDAQRVLLDALKLANRTGFISHFVIEGEAMAQQLRQLIQLNTLPELEQHRAQRILREINQHHRHKFAHFDENFVERLLNHPEVPELIRTSPLTQREWQVLGLIYSGYSNEQIAGELEVAATTIKTHIRNLYQKLGVAHRQDAVQHAQQLLKMMGYGV
# partner: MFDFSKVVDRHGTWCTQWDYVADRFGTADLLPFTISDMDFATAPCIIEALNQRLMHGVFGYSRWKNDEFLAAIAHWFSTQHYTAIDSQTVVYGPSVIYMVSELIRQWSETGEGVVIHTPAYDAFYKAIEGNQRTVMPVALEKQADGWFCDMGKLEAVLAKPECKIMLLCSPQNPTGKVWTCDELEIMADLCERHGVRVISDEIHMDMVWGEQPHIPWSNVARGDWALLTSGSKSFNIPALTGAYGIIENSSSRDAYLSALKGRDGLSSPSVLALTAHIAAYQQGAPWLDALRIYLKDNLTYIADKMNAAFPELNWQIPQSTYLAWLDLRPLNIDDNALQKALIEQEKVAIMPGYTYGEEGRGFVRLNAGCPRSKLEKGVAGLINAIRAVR
# B2: Protein MalY (Escherichia coli (strain K12)), P23256 (parent)
# chain: B1 partner
# partner: B1 chain
# Variants of: B1
# Settings: with maly_ecoli malY
row,effect of a mutation on the interaction,Variant
1,disrupting interaction strength,R143A
2,with no effect,E140A
3,disrupting interaction strength,R173A
4,with no effect,N169A
5,disrupting interaction strength,R143A;R173A

# Variants of: B2
# Settings: with malt_ecoli malT
row,effect of a mutation on the interaction,Variant
1,with no effect,MFDFSKVVDRHGTWCTQWDYVADRFGTADLLPFTISDMDFATAPCIIEALNQRLMHGVFGYSRWKNDEFLAAIAHWFSTQHYTAIDSQTVVYGPSVIYMVSELIRQWSETGEGVVIHTPAYDAFYKAIEGNQRTVMPVALEKQADGWFCDMGKLEAVLAKPECKIMLLCSPQNPTGKVWTCAELAIMADLCERHGVRVISDEIHMDMVWGEQPHIPWANVARGDWALLTSGSKSFNIPALTGAYGIIENSSSRDAYLSALKGRDGLSSPSVLALTAHIAAYQQGAPWLDALRIYLKDNLTYIADKMNAAFPELNWQIPQSTYLAWLDLRPLNIDDNALQKALIEQEKVAIMPGYTYGEEGRGFVRLNAGCPRSKLEKGVAGLINAIRAVR [D182A;E185A;S218A]
